B1: r11_951_TrROS_Hall (parent)
chain: KKKYVIKVYFEDTGKEVEIEAESKEEALEAAKRLAEELGLKIKKVEIYP

Variants of: B1
Assay: folding stability dG (cDNA display proteolysis); higher = more stable
Conditions: PBS, room temperature

Folding stability dG [kcal/mol], by site and new letter:
K1: L 4.52 | R 4.71 | F 4.54 | M 4.8 | N 4.47 | E 4.16
A21: G 4.28 | F 4.23 | T 4.37 | S 4.7 | W 3.72 | M 4.26
L34: W 4.57 | E 3.68 | F 4.52 | I 4.27 | V 4.51 | S 4.01 | D 2.95 | A 4.16 | R 4.32
G14: R 4.05 | K 4.37 | H 4.27 | P 4.26 | Y 4.5 | M 4.29 | I 4.58 | D 4.37 | F 4.73
A27: H 2.78 | S 4.03 | E 1.78 | M 3.71 | Y 3.79 | K 1.74
L40: F 4.6 | R 4.27 | P 3.02 | G 3.56 | C 3.95 | A 4.02
I6: P -0.197 | M 4.46 | E 1.26 | C 3.63 | S 3.42 | Y 4.79 | H 2.82 | N 1.53
V8: K 0.16 | Q 1.52 | P 0.881 | H 1.38 | A 3.59
E18: C 4.4 | N 4.16 | R 4.19 | Q 4.5 | W 4.3 | T 4.3 | K 4.07 | H 4.32
I19: D 3.07 | N 2.66 | V 4.19 | C 4.1 | K 3.18 | F 4.33 | S 3.56
V17: T 4.29 | F 4.42 | P 3.58 | Y 4.36 | R 4.29 | I 4.4 | M 4.28 | H 4.4 | L 4.42 | S 4.23
V5: T 4.47 | S 4.3 | D 3 | H 4.32 | K 4.63 | I 4.29 | P 2.38 | C 3.83
K32: F 4.98 | P 3.09 | L 4.55 | D 4.21 | Y 4.9 | Q 4.38
A35: G 4.25 | K 3.58 | Y 3.78 | W 4.13 | P 2.83 | D 2.58 | C 4.08 | L 3.88 | Q 3.9
K7: S 3.73 | N 3.9 | E 3.12 | Y 4.13 | C 3.91 | W 4.45 | F 4.21 | I 4.11
V45: E 3.18 | D 2.62 | L 4.08 | M 4.47 | A 3.96 | S 3.94 | P 2.52 | C 4.16
K15: G 4.19 | H 4.54 | S 4.28 | P 4.29
I42: D 2.38 | S 2.64 | H 2.67 | A 3.21 | Q 2.53 | E 2.5
K43: G 4.25 | V 4.22 | C 4.13 | P 2.93 | T 4.32 | S 4.15 | F 4.53
E29: V 4.53 | R 4.64 | K 4.53 | H 4.51 | L 4.94 | C 4.58 | T 4.71
A30: T 4.38 | N 4.41 | C 4.16
E22: Y 4.52 | Q 4.11 | D 4.26 | M 4.07 | T 4.23
E26: T 4.28 | Q 4.36 | Y 4.83 | D 4.32 | C 4.23 | A 4.66 | K 4.24
T13: S 4.55 | C 3.6 | H 4.33 | L 4.29 | A 4.42
Y4: L 3.93 | V 4.58 | W 4.31 | D 2.33 | S 3.36 | G 2.47 | A 3.08 | M 3.98 | F 4.2 | C 3.85 | E 2.73 | I 4.29
S23: K 3.92 | P 2.12 | L 4.01 | Q 3.89 | W 4.13 | R 4 | Y 3.98 | M 3.83
Y48: F 4.64 | K 4.2 | V 4.45 | G 4.33 | H 4.44 | P 4.09 | A 4.25 | R 4.36
K24: Q 4.38 | S 4.29 | N 4.46 | E 4.54
L38: P 2.86 | C 4.07 | S 4.28 | T 4.16 | V 4.3 | R 4.34
P49: C 4.52 | W 4.59 | Y 4.78 | Q 4.71 | V 4.45 | F 4.6 | K 4.5
E25: N 4.16 | T 4.28 | Y 4.33 | V 4.36 | I 4.27
K2: F 4.57 | I 4.36 | N 4.24 | Y 4.42 | A 4.43 | Q 4.34
E16: Y 4.45 | N 4.44 | F 4.5
Y9: T 4.22 | L 4.26 | G 3.74 | I 4.35 | W 4.86 | N 3.87 | E 4.28 | Q 4.09 | V 4.3 | K 3.98 | R 4.14
K41: D 4 | E 4.16 | C 4.33 | V 4.34 | F 4.44 | N 4.28 | I 4.19 | H 4.22
L28: P 3.39 | M 4.46 | H 4.44 | N 4.33
A31: T 4.01 | P 3.02 | N 1.73 | R 2.47 | M 4.4
E36: L 4.68 | A 4.62 | P 3.05 | M 4.66 | T 4.6 | G 4.6 | C 4.39 | V 4.66
E37: C 4.94 | F 4.73 | R 4.69 | G 4.55 | Q 4.77
G39: N 4.39 | R 4.43 | F 4.14 | Q 4.37 | A 4.49 | P 2.73 | C 4.25 | M 4.38 | V 4.03
D12: A 4.41 | M 4.55 | E 4.31 | F 4.64 | R 4.79 | K 4.62
E46: D 4.38 | I 4.47 | V 4.66 | M 4.49 | Q 4.26 | F 4.64
R33: S 4.2 | L 4.23 | K 4.39 | C 4.17 | G 4.21 | H 4.18 | W 4.65 | N 4.22
I47: G 4.06 | T 4.17 | K 3.7 | S 4.24 | N 3.89 | Y 4.47 | C 4.13 | L 4.48
E11: F 4.94 | L 4.92 | D 4.5 | S 4.63
K44: P 2.69 | I 4.21 | Y 4.34 | T 4.17 | F 4.3 | A 4.26 | L 4.14 | Q 4.34 | G 4.12 | R 4.4
F10: Y 3.94 | A 2.98 | C 3.67 | S 3.13
E20: P 4.29 | L 4.36 | Q 4.43 | V 4.42 | R 4.29 | D 4.27 | K 4.03 | H 4.42 | C 4.28
K3: N 4.11 | H 4.39 | S 4.52 | P 4.49 | R 4.26 | M 4.59 | Y 4.54

From the MegaScale stability set (Tsuboyama et al. 2023)
